Assay results reported in article PMC2980497.

Target: MutL (Escherichia coli) (UniProt P23367)
Experiment: single-molecule flow-extension
Details: 25 mM NaCl, 0.5 mM ATP, 2.5 pN; S0.5, multiple MutL bind; smFRET: 20 mM Tris-HCl pH 7.5, 25-150 mM NaCl (25 mM standard), 0.1 mM EDTA, 3 mM MgCl2, 0.5 mM ATP, 1 mM DTT, oxygen scavenger with 2 mM trolox …

Sequence of UniProt P23367 (P23367 whole entry): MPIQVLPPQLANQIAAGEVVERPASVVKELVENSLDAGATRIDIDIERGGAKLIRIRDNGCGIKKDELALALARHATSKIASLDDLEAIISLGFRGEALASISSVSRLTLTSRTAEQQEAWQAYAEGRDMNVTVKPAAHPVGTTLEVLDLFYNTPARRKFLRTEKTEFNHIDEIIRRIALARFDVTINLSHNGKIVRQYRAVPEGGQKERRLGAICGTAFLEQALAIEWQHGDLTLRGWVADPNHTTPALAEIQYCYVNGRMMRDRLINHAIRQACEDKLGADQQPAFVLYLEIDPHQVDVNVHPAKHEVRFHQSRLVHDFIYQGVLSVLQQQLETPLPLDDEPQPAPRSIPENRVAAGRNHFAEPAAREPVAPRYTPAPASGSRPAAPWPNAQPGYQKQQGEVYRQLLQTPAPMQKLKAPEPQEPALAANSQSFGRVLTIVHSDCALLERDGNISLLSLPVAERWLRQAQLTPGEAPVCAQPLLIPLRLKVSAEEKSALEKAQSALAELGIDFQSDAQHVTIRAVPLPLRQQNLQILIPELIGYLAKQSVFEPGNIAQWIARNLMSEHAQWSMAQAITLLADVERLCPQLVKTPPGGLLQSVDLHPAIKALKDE

Substance 5.3 kb ssDNA has a K half of 24 nM.
